{
  "source": "paper PMC11476191",
  "about": "“Towards controlling activity of a peptide asparaginyl ligase (PAL) by lumazine synthetase compartmentalization” (Faraday Discussions, 2024)",
  "key": {"[1]": {"target": "AaLS-13 (Aquifex aeolicus)", "experiment": "SEC; Ni-NTA eluate of the co-expressed proteins on Superose 6; 50 mM sodium phosphate pH 7.0, 150 mM NaCl, 1 mM EDTA, 1 mM TCEP; fractions by SDS-PAGE; repeated in buffer at pH 7.0 and 7.4"}, "[2]": {"target": "the molecule itself", "experiment": "negative stain transmission electron microscopy; purified protein samples (0.05-0.15 mg/mL) on carbon-covered copper grids, uranyl acetate stain, 200 kV"}},
  "data": [
    {"molecule": "cpAaLS-OaAEP1-C247A", "values": [
      {"measurement": "ratio of cpAaLS-OaAEP1-C247A to AaLS-13 in the cage (estimated from SDS-PAGE band intensity) (AaLS-13 per cpAaLS-OaAEP1-C247A)", "setting": "[1]", "value": 3.3}
    ]},
    {"molecule": "AaLS-13 (other, Aquifex aeolicus, negatively supercharged engineered variant of lumazine synthase from Aquifex aeolicus (AaLS); Self-assembles into a protein cage; also called His6-tagged AaLS-13; AsLS-13; source: E. coli SHuffle T7 Express, co-expressed with cpAaLS-OaAEP1-C247A (IPTG induction); in lysate, then purified (Ni-NTA IMAC, SEC)) MEIYEGKLTAEGLRFGIVASRFNHALVGRLVEGAIDCIVRHGGREEDITLVCVPGSWEIPVAAGELARKEDIDAVIAIGVLIEGAEPHFDYIASEVSKGLANLSLELRKPISFGDITDDELEEAIECAGTEHGNKGWEAALSAIEMANLFKSLR", "values": [
      {"measurement": "binding result", "setting": "[2]", "value": "binds"}
    ]}
  ]
}
